Target: 326^βB (TP0326 β-barrel construct with a C-terminal His-tag) (Treponema pallidum subspecies pallidum (Nichols-Farmington strain))
Test: native gel or EMSA

In the case of “326^βB (TP0326 β-barrel construct with a C-terminal His-tag) (domain or fragment)”, the stoichiometry N is reported as 3.

From paper PMC3115443
